Laboratory results from the domain aggregation screens of Martell et al. (2025).

Test: soluble fraction after stress (log2 fold change); higher = more stays soluble; pooled small domains, quantitative proteomics
Details: stress: 75 degC
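Further: 20 min heating vs room temperature control held 20 min.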

Sequence | soluble fraction (log2)
HMETYHIQMKGDPSKGIVGFSQLDMVIDKIKRLETEKGIAPYELEVLDGDTMEKYSGEEFLTMHE | -0.0165
HMETYSGVERAAILVMYLERTLAKALLDHMNDEEVRRVGMAMASIDRVEGPDIERIVGDFVRELYEVS | -0.642
HMETYTVPEVLGLTPEQAAQLPEVKDIFTLDVKEEGDFSDKPVGTIVRQSPTEGEHRKGDNLVIEVWLSV | 0.166
HMEVADAAQRKILQALQVQPLTVEQLSQELRTDTGDLLVSLSMMEITGLIRREAGNTFLAVFAPK | -1.66
HMEVEIPSREALLGLVQKHLKPVSFDEFVSHFKLGDERQQVGIKRRLRAMERDGQLVYTKANSYGLPDRM | 0.436
HMEVGVSGTVFNTDSLNVRKGPGTNFDTVTSLKRGSVVEVFEQSAVDGTVWGRIANGWVNMQYVSL | -0.707
HMEVKEVDYSAFMTMTEENSISKVEIEENQILFKKKGDDQTTYKTARMDDPALITRLHDQGVDFTGQ | 0.139
HMEVKRANRKERFLEALPYQFSRQDYLNIADKNKIPHKTAEGYITKFVDAGLIHREAHNNYTNPTKA | -0.0913
HMEVLPLHQVKLKYAEADTILIALKSAQSMLSPRGQLLADNRSQQIFVYDDEAHTATLIEAIKHLDQPL | -0.166
HMEVLTEPKVQSIDTHGEKSTFVIESPNPLQPDEIAKLVGADGISVRVDRTWLKSHRDSTWTYSILTVS | -0.118
HMEVPFRNAAIFKTRSGDYAIRASYDGVDLGIKPIEKSTARTYFQLTDVKDKESFLNMTARNQYESEIAGI | -0.0612
HMEVPNLIGMTDKDLQRTYFQLPIEAAGDGSVVIKQLPEPGEKVKEGSVIRVLLG | 0.193
HMEVPQKTLEILEPWRGRKGFLIPVLQAVQHEFGYVPKEAIETVSREMKMPTAEIYGVVTFYAQFH | -0.571
HMEVSEGEIREKVESVFSSNPRQAYNYKQISKKLNINDKSERQIVWDVLRKLAGSGKIQEVEHGRFRARAE | -0.162
HMEVSKETFPAYVAVDSLPVYKSASTSSSKVTTIDFGREVTVVETRGGWAKIQYGSYKGFAEIEGMSKN | -1.06
HMEVVELTDDEKMILATLHDGPVEIGHIKQVVGLSGKKWDAATKSLRQKGLINVVLENEQKLMVK | 0.492
HMEWGEADFVRLDEALATLRTLSPRQAEVVDLRFFSELSLEETAATLGLSLATVKRDWSVARLYLQRALS | 0.198
HMEWTVEKQAAATLNAWMRKNSEMTSEKKVAVAAGIGPATVNRIMKAEVSTTIGVLSSLARAFGHEAYEMI | -0.0249
HMEYDEVVVVKQIIPKGKNTMVAHLKHLKEHGETGFLKQAVGYLKLHASEIPFSVDAVISEVH | -0.253
HMEYDYKVIDFFKDYYSYLNYQEIEPNILDKQLTTLTEEESAKIAGIMKLDYEDFTRGIEIVTGS | -0.536
HMEYLIENYGSVINQARMKKGMTQEQLSSKTGVSQAYIRSIESQNMKPTDAVARKIEFELGIKLFE | -1.05
HMEYSKSIKRLREDKNLTVEELAKRLSLDVEEIQKAEDGEDVDQKTLEAIARYFGVQYDSLVEGTAKSK | -0.0335
HMEYTTEELDSLLKLYFQTHESINRNEFEQLTSYTRTTASRRLKTLVQAGKLQNIGLYRFPVYKPTEGNF | -2.82
HMEYYWHQLKGLEVVNTRGESLGRVRRLLETGANDVLVLEGEQERLIPYVPDTIKQVDLAKGLIEVAWDRD | -0.17
HMFAADIGVGIVDADSLRVRSEPSTGAPIVTSLLRGTQVTVQEKLDGWYRITYNDVSGFVSAEYLIFTADE | -0.358
HMFAGEWKQDASGWWYQNDDGSFTRNGWQNISGKQYYFNENGYMLHDTTTPDGKQVGSDGSLV | 0.0573
HMFAKVEGITGDILDKLQQQRGFLALSDKSSPEAIYDTFGVSKKVFKQAIGTLFKQQKISIEAEGIRLV | -1.56
HMFASSADGVEGLKTNPIFASTKEKSDAGKLLYTRYLAIGIFRMLELAKATDPKALEALVEAGG | 0.259

Sequence | soluble fraction (log2)
HMFDDEELDTFAGRQSDSYDQQEVEQFSDVLHTMRQDEVQAWWRSLTLRGISLPDELKDEVIML | -0.481
HMFDDLSTNLRDLAHNYIEKYSPSKQQLKVFLLKKYLMKFKGSKTKKEISEIIDKIISNLEENKYLNDEL | 0.36
HMFDFMVLGQAIKKARESKEMTREQLAEILDVAPRHIQSIENEGQYPSFPLFIRLVTMFNISVDQY | -2.31
HMFDGNIKIVEDAFSVTIVARGTEVKISGDPENVYLASKTVEGLLTLIDKGEAITDQRVHYVIGLVREG | -2.45
HMFDGTLSIYPNPSKGIFNLDLLNVKDGEYTITVDNLLGQEVYSEIRNVINSSSKTLDLSNLTKGV | -0.204
HMFDLKKIYGTILDETKSSLLLSTDDGREVQIIKTDGTEVLASGLGVYVEVAYRDETPDGYPIALTI | -0.41
HMFDTVKIGKRIAELRKKRDMTQFELADRLGISYQAVSNWERGNSMPDIAKLPELAEIFGVTVDEILG | 0.283
HMFEARNTTFSEDGKTITETYGVKRIETEFVSDSTIVQKLYDNDVLTKTKTITFSADGLSIKEDV | -0.0561
HMFEDYNELDEYLETRFIPTYVLLKQRKNANGEIDHFPSIRLQHIMALKLSEAELEHVMNYLKEKNIRVG | -1.68
HMFEKVKLTLTIPSKYSGSTYSALRNRMNKFSKEEWLSNGDLKIEIEVTGGQKTDIYTLINKLTNGEAIIE | -1.25
HMFELDELDLVILKNLANGLSKKQIRVKLKKMDLRPNSESAIDKRVSKLFDEFGAKNSTELVAKLIREGL | -2.71
HMFELTVGTPIRVIREPYFGKLGTVTELPAQLMVVESGTEVRVLKAKIEGEGEVLVPRANVEIIATG | -1.38
HMFELVKISENIPIRDLAETLKTTPNEIIKELMVFGVLANINQTLNFDLASKVADKLGFEVELL | -0.266
HMFEMPTSLVRTLSAIAIKQPVMQSEIIKLRGAGAYDHIKELIIRELVHRKEEGRSPILTTTKKFQEYFRL | -2.52
HMFERIYVFSRDGDIIELPKGSTVLDFAYHVHTHVGNRAQAARVNKRYVPLTYQLKTGEQVEIIIS | -1.44
HMFEYDEEEYEKLGPNADLTIKSMTDWGQSLVRKGVWSESDFEEFKIMGGTAQGLRALQKVRSYY | -0.649
HMFFAGLSPEAARTLDSLPLHSWSSVEQIARQAGLNIETVRKELGLLELSGIALSRQGRFRRA | -1.07
HMFFFILNKGAKSGGEITHAVLNGSIVSKPAGWDAFHGLVLAKEKLSSEEIQRQMKELGVEMEIVPL | -2.4
HMFGDQMQSYLSRLSQIDVDIIALKYGDNFTYREIGLILEMSEDSVRQRAVRARKKLETMIQKG | -3.31
HMFGEDNLKSKEIKERVTEVAKHADDPVWIEARRKWKDENPDQNVKDYQQAYISGRIHELPWDVSYI | 0.117
HMFGEKEFYQWIGKTAGEKFSGLPAAVIKSLYKYWREYNLSEEDIMGFIRQTELLPKRTPLDVELFFEK | -0.857
HMFGELTPDTAKRFLLTAREQEMASLIAQGLTNKEIAFRLGISEATVRTHIYNLFQKVGVQSRIELLNVLH | -1.69
HMFGNTGETSGTGVAFTRSPVDGENKIFGEFLVNAQGEDVVAGIRTPQPISEMEQAFPEVYSKFESVAEIL | 0.0261
HMFHDALVSFAERRVIFMKELVNRLNEARKAYYEGESIMSDKEYDNLYDKLVKMELTTGVVLPNSPTEEVG | -1.33
HMFIEHSKYKLSFKYNQLGKISNVINSNNGIIMDKHFDQNITLLAKLTENTFQEIIKHFPTIIIKRL | -3.74
HMFIEPPSLEELERRLRGRGTETDDVVDMRMRTALVELSQKMEYDYRLVNDDLDEATRQLVAYVNEIAEQ | -0.0555
HMFIPMTDAQRHLFANKLAKLPELSEYSRGTESYEDFAIRIADMLLEPPKFRMFYPLLEQLGF | -1.77
